Results taken from US20160280748.

What was measured:
[1] = tested on: +36 GFP-(GGS)4-ALAL-(GGS)4-Cre-His6
[2] = tested on: +36 GFP-(GGS)4-ALAL-(GGS)4-mCherry-His6
Chain of +36 GFP-(GGS)4-ALAL-(GGS)4-mCherry-His6 (chain, as listed by the source): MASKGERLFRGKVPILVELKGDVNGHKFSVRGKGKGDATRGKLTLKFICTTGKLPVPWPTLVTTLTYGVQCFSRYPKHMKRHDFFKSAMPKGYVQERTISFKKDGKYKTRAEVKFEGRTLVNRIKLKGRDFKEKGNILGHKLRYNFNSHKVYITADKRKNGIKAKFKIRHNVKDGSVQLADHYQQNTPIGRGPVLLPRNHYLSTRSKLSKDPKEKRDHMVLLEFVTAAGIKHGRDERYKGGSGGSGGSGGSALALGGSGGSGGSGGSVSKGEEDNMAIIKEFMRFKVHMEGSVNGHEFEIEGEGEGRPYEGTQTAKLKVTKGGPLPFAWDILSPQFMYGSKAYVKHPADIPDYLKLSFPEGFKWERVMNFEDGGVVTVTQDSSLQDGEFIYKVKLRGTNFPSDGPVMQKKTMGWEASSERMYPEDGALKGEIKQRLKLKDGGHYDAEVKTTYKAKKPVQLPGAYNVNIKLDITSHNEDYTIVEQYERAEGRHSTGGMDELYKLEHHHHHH

Chain of +36 GFP-(GGS)4-ALAL-(GGS)4-Cre-His6 (chain, as listed by the source): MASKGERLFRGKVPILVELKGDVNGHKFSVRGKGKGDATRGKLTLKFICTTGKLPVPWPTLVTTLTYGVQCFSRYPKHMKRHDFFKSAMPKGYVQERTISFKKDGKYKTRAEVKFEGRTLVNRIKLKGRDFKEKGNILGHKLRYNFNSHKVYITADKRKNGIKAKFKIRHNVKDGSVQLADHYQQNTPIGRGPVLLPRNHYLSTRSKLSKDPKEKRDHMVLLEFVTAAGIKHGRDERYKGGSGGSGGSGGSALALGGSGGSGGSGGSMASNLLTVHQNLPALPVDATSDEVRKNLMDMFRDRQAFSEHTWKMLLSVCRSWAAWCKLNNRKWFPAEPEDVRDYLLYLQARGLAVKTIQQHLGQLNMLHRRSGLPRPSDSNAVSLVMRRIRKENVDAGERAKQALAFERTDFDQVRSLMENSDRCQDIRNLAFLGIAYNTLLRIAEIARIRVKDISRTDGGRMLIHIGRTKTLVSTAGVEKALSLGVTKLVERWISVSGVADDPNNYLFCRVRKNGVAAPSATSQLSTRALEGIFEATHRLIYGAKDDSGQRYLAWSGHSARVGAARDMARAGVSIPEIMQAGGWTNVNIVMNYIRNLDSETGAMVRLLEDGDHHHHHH

cathepsin B from human liver (Sigma)
cleavage of the fusion protein in vitro (gel) [1]: the +36 GFP-Cre fusion was indeed cleaved into two protein fragments with lengths consistent with separated +36 GFP and Cre
cleavage of the fusion protein in vitro (gel) [2]: Cleavage of +36 GFP-mCherry fusion. ... lane 4: +36 GFP-mCherry fusion after treatment with 500 ng cathepsin B for 45 min at 37 °C
